# According to paper doi:10.1101/671792 (bioRxiv, 2019):
# B1: p62/SQSTM1 PB1 domain, residues 1-102 (domain or fragment)
# chain: MASLTVKAYLLGKEDAAREIRRFSFCCSPEPEAEAEAAAGPGPCERLLSRVAALFPALRPGGFQAHYRDEDGDLVAFSSDEELTMAMSYVKDDIFRIYIKEK
# B2: MBP-tagged wild-type AtNBR1-PB1 (domain or fragment)
# chain: MESTANALVVKVSYGGVLRRFRVPVKANGQLDLEMAGLKEKIAALFNLSADAELSLTYSDEDGDVVALVDDNDLFDVTNQRLKFLKINVNAGVST
# B3: Arabidopsis thaliana NBR1 PB1 domain, residues 1-95 (domain or fragment)
# chain: B2 chain
# B4: TFG-1 (Trk-fused gene 1) PB1 domain, residues 1-95 (domain or fragment)
# chain: MNGQLDLSGKLIIKAQLGEDIRRIPIHNEDITYDELVLMMQRVFRGKLLSNDEVTIKYKDEDGDLITIFDSSDLSFAIQCSRILKLTLFVNGQPR
# What was measured:
# [1] = target: the molecule itself; test: sedimentation
# [2] = target: B3; test: pull-down
Binder,binding result [1],binding result [2]
B1,binds,
B2,,binds
B3,binds,
B4,binds,
